Here are results for two proteins from article PMC2810632 (Neuron, 2009).

This series concerns the molecule itself. As to the kind of experiment: non-reducing SDS-PAGE of immunoprecipitates.

B1: Rat p75 neurotrophin receptor (p75^NTR), wild type, N-terminal HA tag (receptor, UniProt P07174 30-425, looked up)
chain: KETCSTGLYTHSGECCKACNLGEGVAQPCGANQTVCEPCLDNVTFSDVVSATEPCKPCTECLGLQSMSAPCVEADDAVCRCAYGYYQDEETGHCEACSVCEVGSGLVFSCQDKQNTVCEECPEGTYSDEANHVDPCLPCTVCEDTERQLRECTPWADAECEEIPGRWIPRSTPPEGSDSTAPSTQEPEVPPEQDLVPSTVADMVTTVMGSSQPVVTRGTTDNLIPVYCSILAAVVVGLVAYIAFKRWNSCKQNKQGANSRPVNQTPPPEGEKLHSDSGISVDSQSLHDQQTHTQTASGQALKGDGNLYSSLPLTKREEVEKLLNGDTWRHLAGELGYQPEHIDSFTHEACPVRALLASWGAQDSATLDALLAALRRIQRADIVESLCSESTATSPV
As a reminder, the stoichiometry N is the number of molecules, sites or subunits per partner or assembly. As to B1, the “stoichiometry N” value amounted to 2.

B2: Endogenous rat p75^NTR (receptor, UniProt P07174 30-425, looked up)
chain: KETCSTGLYTHSGECCKACNLGEGVAQPCGANQTVCEPCLDNVTFSDVVSATEPCKPCTECLGLQSMSAPCVEADDAVCRCAYGYYQDEETGHCEACSVCEVGSGLVFSCQDKQNTVCEECPEGTYSDEANHVDPCLPCTVCEDTERQLRECTPWADAECEEIPGRWIPRSTPPEGSDSTAPSTQEPEVPPEQDLVPSTVADMVTTVMGSSQPVVTRGTTDNLIPVYCSILAAVVVGLVAYIAFKRWNSCKQNKQGANSRPVNQTPPPEGEKLHSDSGISVDSQSLHDQQTHTQTASGQALKGDGNLYSSLPLTKREEVEKLLNGDTWRHLAGELGYQPEHIDSFTHEACPVRALLASWGAQDSATLDALLAALRRIQRADIVESLCSESTATSPV
In the case of B2, the “stoichiometry N” value was found to be 2.
